Drawing on publication PMC12432413, this text covers stoichiometry N for one substance.

The stoichiometry N is a count of units in the complex or per binding partner.

For the assay, the target named is CP* (calprotectin, S100A8 C42S / S100A9 C3S heterodimer) (UniProt P05109). The experiment in a line: crystal structure; Ca2+-loaded CP* with 0.7 equivalents of Zn2+; 20 mM Tris pH 7.5, 100 mM NaCl, 2 mM MgCl2; hanging drop, 20°C, 1.0M sodium citrate (pH 5.2), 28% MPD; 1.87 Å.

“CP* (calprotectin, S100A8 C42S / S100A9 C3S heterodimer) (from UniProt P05109 1-87; P06702 5-112) (complex)”: the stoichiometry N was determined as 2.
